Measured values from patent US8470523B2, “Method for detecting intracellular interaction between biomolecules” (CIS BIO International, priority 2005, dated 2013).

System: CHO-M1 cells
Assay: Entry of a fluorophore into cells in culture, fluorescence reader
Details: 2.5 μM or 5 μM in KREBS buffer, 1 hour, FIG. 13
Procedure: CHO cells are cultivated at 37° C., under a controlled atmosphere containing 5% of CO2, in F-12 HAM medium (Invitrogen)+10% of fetal calf serum (FCS) previously inactivated for 20 min at 60° C.
On the day before the experiment, CHO-M1 cells are inoculated into a 96-well plate at a density of 10,000 cells per well.
On the day of the experiment, the culture medium is aspirated and replaced with the test compounds at a concentration of 2.5 μM or 5 μM in KREBS buffer (Sigma). After 1 hour of incubation, the wells are washed with a KREBS buffer+0.05% Tween 20. The cells are then lyzed in a PBS buffer+0.1% Triton X100. The fluorescence is measured on an Analyst AD reader (LJL, Molecular Devices) with the filters and the dichroic appropriate for the spectral specificities of the compound to be detected.

## N=C(N)NCCCC(NC(=O)CCCCCN)C(=O)NCCCCCC(=O)NC(CCCNC(=N)N)C(=O)NCCCCCC(=O)NC(CCCNC(=N)N)C(=O)NCCCCCC(=O)NC(CCCNC(=N)N)C(=O)NCCCCCC(=O)NC(CCCNC(=N)N)C(=O)NCCCCCC(=O)NC(CCCNC(=N)N)C(=O)NCCCCCC(=O)NC(CCCNC(=N)N)C(=O)NC(CSCC(=O)Nc1ccc2c(c1)C1(OC2=O)c2ccc(O)cc2Oc2cc(O)ccc21)C(N)=O (stereo not shown) [R7fluorescein]
  entry into the cell (fluorescence intensity of lysed cells): enter the cell
